The target in assay [1] is T1, biotinylated ubiquitin (human-derived ubiquitin with C-terminal Cys residue and 6xHis tag, biotin on the Cys) (human, UniProt P0CG48 1-76, biotin tag (EZ-Link Maleimide-PEG11-Biotin) on the added C-terminal Cys residue).
T1 construct: mature; Construct pET21a-hUb-Cys-His6; also called hUb-Cys-His6; biotin-labeled ubiquitin monomer
Put plainly: BLI; biotinylated ubiquitin on streptavidin sensor, Monobody-Nus-His6 as analyte. In general terms: Biolayer interferometry detects binding as a change in optical thickness at a sensor tip.

The target in the next assay is T2, K6 (human).
T2 construct: quantified through the peptide M[Oxid]QIFVK[di-GlyGly]TLTGK; also called K6 chain; K6-linked ubiquitin chain
Put plainly: immunoprecipitation from HCT-116 cell extract; quantitative mass spectrometry; pie chart [panel B]. The source says: (§1) FIG. 7 is a view showing the results of quantitative mass spectrometry analysis of immunoprecipitates. […] The immunoprecipitates subjected to FIG. 5C were electrophoresed, and high molecular weight regions (62 kDa or more) were subjected to quantitative mass spectrometry analysis. A stable isotope-labeled ubiquitin-derived peptide (name: EST) as an internal standard and 8 types of ubiquitin chain-derived peptides (names: K6, K11, K27, K29, K33, K48, K63, and M1) were used, and the quantification values (fmol) were described. Since the EST peptide sequence overlaps with the K63 chain peptide sequence, the total ubiquitin value was calculated by adding the value of the K63 chain-derived peptide to the quantitative value of the EST peptide. The total amount of ubiquitin contained in the ubiquitin monobody immunoprecipitates was confirmed to be higher than that of FK2 or P4D1. […] The value of the control is subtracted from the value of each antibody, a total value of the 8 types of ubiquitin chain-derived peptides is set at 100%, and the percentage of each ubiquitin chain is shown as a pie chart.
(§2) The above-described immunoprecipitate was electrophoresed on 4%-12% NuPAGE Bis-Tris gels (Thermo Fisher Scientific) in MES buffer (Thermo Fisher Scientific) for about 2 cm, and was then stained with CBB (Bio-Safe Commassie, Bio-Rad). After the gel was washed with Milli-Q water, a gel of 62 kDa or more was cut out using a molecular weight marker as an indicator, and the gel was cut into 1 mm squares. The gel pieces were collected in an Eppendorf tube and were washed with 50 mM ammonium bicarbonate and 30% acetonitrile (ACN) for 2 hours, and then with 50 mM ammonium bicarbonate and 50% ACN for 1 hour, and were dehydrated in 100% ACN for 15 minutes. Subsequently, a trypsin solution (20 ng/ml Trypsin Gold, Promega, 50 mM ammonium bicarbonate, and 5% ACN) was added to the resultant, which was then digested at 37° C. overnight.

The target of a further assay is T3, K63 (human).
T3 construct: also called K63 chain; K63-linked ubiquitin chain
Described as above.
Source text: as §1, §2

In a further assay the target is T4, K29 (human).
T4 construct: quantified through the peptide AK[di-GlyGly]IQDK; also called K29 chain; K29-linked ubiquitin chain
The assay is described as above.
Source text: as §1, §2

Another assay concerns the target T5, K11 (human).
T5 construct: also called K11 chain; K11-linked ubiquitin chain
The description is as above.
Source text: as §1, §2

A further assay addresses T6, K48 (human).
T6 construct: quantified through the peptide LIFAGK[di-GlyGly]QLEDGR; also called K48 chain; K48-linked ubiquitin chain
Described as above.
Source text: as §1, §2

For a further assay, the target named is T7, K33 (human).
T7 construct: also called K33 chain; K33-linked ubiquitin chain
Described as above.
Source text: as §1, §2

The next assay addresses T8, M1 (human).
T8 construct: quantified through the peptide GGM[Oxid]QIFVK; also called M1 chain; M1-linked ubiquitin chain
The assay is described as above.
Source text: as §1, §2

The target of a further assay is T9, K27 (human).
T9 construct: also called K27 chain; K27-linked ubiquitin chain
The assay is described as above.
Source text: as §1, §2

By Kd is commonly meant the constant that tells how readily two partners part at equilibrium. Read a high Kd as weaker binding.

B1: anti-ubiquitin monobody clone A, Monobody-Nus tag-His6 recombinant protein (designed binder)
chain: LEVVEASPTSIQISWDAYPYYIIGETVRYYRITYGETGGNSPVQEFTVPGSKSTATISGLKPGVDYTITVYAVTYYGNAFWGWPPISINYRTHHHHHH
notes: Fibronectin type III monobody fused from the N-terminus to Nus tag and His6, made in E. coli; also called Ub monobody; not shown: Nus tag for solubilization
With B1, in assay [1], binding was characterised by a dissociation constant (Kd) of 1.1 nM.

B2: Halo tag-fused anti-ubiquitin monobody (His6-Halo tag-TEV recognition sequence-GGGS-monobody, clone C) (designed binder)
chain: HHHHHHGGGSLEVVEASPTSIQISWDAASFGFTHMDKVRYYRITYGETGGNSPVQEFTVPGSKSTATISGLKPGVDYTITVYAVTWYAYSYWGWPPISINYRT
notes: Immobilized on Magne HaloTag Beads; also called Ub monobody; Halo tag-fused monobody; not shown: Halo tag
For the molecule B2, the “percentage of this chain among the 8 ubiquitin chain-derived peptides in the immunoprecipitate (control subtracted)” value with K6 came to 4%; with K63, 19%; with K29, 10%; with K11 it was 6%; in the assay with K48 it was 61%; with K33, 0%. Besides, the “percentage of this chain among the 8 ubiquitin chain-derived peptides in the immunoprecipitate (control subtracted)” value with M1 and in the assay with K27 was 0% each time.

B3: anti-ubiquitin monobody clone E, Monobody-Nus tag-His6 recombinant protein (designed binder)
chain: LEVVEASPTSIQISWDANIYSVGQGEYVRYYRITYGETGGNSPVQEFTVPGSKSTATISGLKPGVDYTITVYAVTEYSYMYWGWPPISINYRTHHHHHH
notes: Monobody, Nus tag and His6 fused from the N-terminus; also called Ub monobody; not shown: Nus tag for solubilization
In assay [1], B3 registered a Kd of 1.2 nM.

The values above are taken from patent publication US20250129143A1 (TOKYO METROPOLITAN INSTITUTE OF MEDICAL SCIENCE, published 2025).
